# B1: 1227H8 human IgG4 (antibody, V domains shown)
# VH: QMQLVQSGAEVKKTGSSVKVSCKASGHTFAYHYLHWVRQAPGQGLEWMGGIIPIFGTTNYAQRFQDRVTITADESTSTAYMELSSLRSEDTAVYYCASADYAWESYQPPQINGVWGRGTMVTVSS
# VL: QSVLTQPPSVSAAPGQKVTITCSGSTSNIGNNYVSWYQQHPGKAPKLMIYDVSKRPSGVPDRFSGSKSGNSASLDISGLQSEDEADYYCAAWDDSLSEFFFGTGTKLTVL
# B2: 1230D8 human IgG4 (antibody, V domains shown)
# VH: QMQLVQSGAEVKKTGSSVKVSCKASGYTFPYHYLHWVRQAPGQGLEWMGGIIPIFGTTNYAQRFQDRVTITADESTSTAYMEFSSLRSEDTAVYYCASADYVWESYHPATSLSLWGRGTMVTVSS
# VL: QSVLTQPPSVSAAPGQKVTISCPGSTSNIGNNYVSWYQQRPGKAPKLMIYDVSKRPSGVPDRFSGSKSGNSASLDISELQSEDEADYYCAAWDDSLSEFLFGTGTKLTVL
# B3: 1133C11 human IgG4 (antibody, V domains shown)
# VH: EVQLVQSGAEVKKPGSSVKVSCKASGGTFSTYGISWVRQAPGQGLEWIGGIIPIFDTGNSAQSFQGRVTITADESTSTAYMEVSSLRSDDTAVYYCASSSRIYDLNPSLTAYYDMDVWGQGTMVTVSS
# VL: QAVLTQPSSVSTPPGQKVTISCSGSSSNIGNNYVSWYQQLPGTAPKLLIYDNNKRPSGIPDRFSGSKSGTSATLGITGLQTGDEADYYCGTWDSSLSAWVFGGGTKLTVL
# B4: 1160E3 human IgG4 (antibody, V domains shown)
# VH: EVQLVQSGAEVKKPGSSAKVSCKASGGTFSTYGISWVRQAPGQGLEWIGGIIPIFDTGNSAQSFQGRVTITADESTSTAYMEVSSLRSDDTAVYYCASSSRIYDLNPSLTAYYDMDVWGQGTMVTVSS
# VL: QAVLTQPSSVSTPPGQKVTISCSGSNSNIGNNYVSWYQQLPGTAPKLLIYDNNKRPSGIPDRFSGSKSGTSATLGITGLQTGDEADYYCGTWDSSLSAWVFGGGTKLTV
# B5: 1214D10 human IgG4 (antibody, V domains shown)
# VH: EVQLVQSGAEAKKPGSSVKVSCKASGGTFSTYGISWVRQAPGRGLEWIGGIIPIFDTGNSAQSFQGRVAITADESTSTAYMEVSSLRSDDTAVYYCASSSRIYDAHLNHHGYYDMDVWGQGTMVTVSS
# VL: QAVLTQPSSVSTPPGQKVTISCSGSSSNIGNNYVSWYQQLPGTAPKLLIYDNNKRPSGIPDRFSGSKSGTSATLGITGLQAGDEADYYCGTWDSSLSAWVFGGGTKLTVL
# B6: 1158A1 human IgG4 (antibody, V domains shown)
# VH: EVQLVQSGAEVKKPGSSVKVSCKASGGTFSTYGISWVRQAPGQGLEWIGGIIPIFGTGNSAQSFQGRVTITADESTSTAYMEVSSLRSDDTAVYYCASSSRIYDHHNHVGGYYDMDVWGQGTMVTVSS
# VL: QAVLTQPSSVSTPPGQKVTISCSGSSSNIGNNYASWYQQLPGTAPKLLIYDNNKRPSGIPDRFSGSKSGTSATLGITGLQTGDEADYYCGTWDGSLSAWVFGGGTKLTVL
# B7: 1175H8 human IgG4 (antibody, V domains shown)
# VH: EVQLVQSGAEVKKPGSSVKVSCKASGGTFSTYGISWVRQAPGQRLEWIGGIIPIFDTGNSAQSFQGRVTITADESTSTAYMEVSSLRSDDTAVYYCASSSRIYDATTGLTPYYDMDVWGQGTMVTVSS
# VL: QAVLTQPSSVSTPPGQKVTISCSGSSSNIGNNYVSWYQQLPGTAPKLLIYDNNKRPSGIPDRFSGSKSGTSATLGITGLRTGDEADYYCGTWDSSLSAWVFGGGTKLTVL
# B8: 1155H1 human IgG4 (antibody, V domains shown)
# VH: EVQLVQSGAEVKKPGSSVKVSCKASGGTFSTYGISWVRQAPGQGLEWIGGIIPIFDTGNSAQSFQGRVTITADESTSTAYMEVSSLRSDDTAVYYCASSSRIYDFHLANKGYYDMDVWGQGTMVTVSS
# VL: QAVLTQPSSVSTPPGQKATISCSGSSSNIGNNYVSWYQQLPGTAPKLLIYDNNKRPSGIPDRFSGSKSGTSATLDITGLQTGDEADYYCGTWDSSLSAWVFGGGTKLTVL
# B9: 1214A1 human IgG4 (antibody, V domains shown)
# VH: EVQLVQSGAEVKKPGSSVRVSCKASGGTFSTYGISWVRQAPGQGLEWIGGIIPIFDTGNSAQSFQGRVTITADESTSTAYMEVSSLRSDDTAVYYCASSSRIYDAHLQAYYDMDVWGQGTMVTVSS
# VL: QAVLTQPSSVSTPPGQKVTISCSGSSSNIGNNYVSWYQQLPGTAPKLLIYDNNKRPPGIPDRFSGSKSGTSATLGITGLQTGDEADYYCGTRDSSLSAWVFGGGTKLTVL
# B10: 1218H5 human IgG4 (antibody, V domains shown)
# VH: EVQLVQSGAVVKKPGSSVKVSCKASGGTFSTYGISWVRQAPGQGLEWIGGIIPIFDTGSSAQSFQGRVTITADESTSTAYMEVSSLRSDDTAVYYCASSSRIYDLNPSLTAYYDMDVWGQGTMVTVSS
# VL: QAVLTQPSSVSTPPGQKVTISCSGSSSNTGNNYVSWYQQLSGTAPKLLIYDNNKRPSGIPDRFSGSKSGTSATLGITGLQTGDEADYYCGTWDSSLSAWVFGGGTKLTVL
# B11: G1165D4 human IgG4 (antibody, V domains shown)
# VH: QVQLVQSGAEVKKPGSSVKVSCKASGGTFSTYGISWVRQAPGQGLEWMGGIIPIFDTGNSAQSFQGRVTITADESTSTAYMELSSLRSEDTAVYYCARSSRIYDLNPSLTAYYDMDVWGQGTMVTVSS
# VL: QSVLTQPPSVSAAPGQKVTISCSGSSSNIENNYVSWYQQLPGTAPKLLIYDNNKRPSGIPDRFSGSKSGTSATLGITGLQTGDEADYYCGTWDSSLSAWVFGGGTKLTV
# B12: 1211G10 human IgG4 (antibody, V domains shown)
# VH: EVQLVQSGAEVRKPGSSVKVSCKAYGGTFSTYGISWVRQAPGQGLEWVGGIIPIFDTRNSAQSFQGRVTITADESTSTAYMEVSSLRSDDTAVYYCASSSRIYDMVSTLIPYYDMDVWGQGTMVTVSS
# VL: QAVLTQPSSVSTPPGQKVTISCSGSSSNIGNNYVSWYQQLPGTAPKLLIYDNNKRPSGIPDRFSGSKSGTSATLGITGLQTGDEADYYCGTWDSSLSAWVFGGGTKLTVL
# B13: 1165D4 human IgG4 (antibody, V domains shown)
# VH: EVQLVQSGAEVKKPGSSVKVSCKASGGTFSTYGISWVRQAPGQGLEWIGGIIPIFDTGNSAQSFQGRVTITADESTSTAYMEVSSLRSDDTAVYYCASSSRIYDLNPSLTAYYDMDVWGQGTMVTVSS
# VL: QAVLTQPSSVSTPPGQKVTISCSGSSSNIENNYVSWYQQLPGTAPKLLIYDNNKRPSGIPDRFSGSKSGTSATLGITGLQTGDEADYYCGTWDSSLSAWVFGGGTKLTVL
# B14: 1152H5 human IgG4 (antibody, V domains shown)
# VH: EVQLVQSGAEVKKPGSSVKVSCKASGGTFSTYGISWVRQAPGQGLVWIGGIIPIFDTGNSAQSFQGRVTITADESTSTAYMEVSSLRSDDTAVYYCASSSRIYDMISSLQPYYDMDVWGQGTMVTVSS
# VL: QAVLTQPSSVSTPPGQKATISCSGSSSNIGNNYVSWYQQLPGTAPKLLIYDNNKRPSGIPDRFSGSKSGTSATLGITGLQTGDEADYYCGTWDSSLSAWVFGGGTKLTVL
# How the values were obtained:
# Experiment in all cases: cell-based or functional assay
# [1] = biological target: human nerve growth factor (beta-NGF) (human, UniProt P01138 122-241)
# Sequence of human nerve growth factor (beta-NGF) (P01138 122-241): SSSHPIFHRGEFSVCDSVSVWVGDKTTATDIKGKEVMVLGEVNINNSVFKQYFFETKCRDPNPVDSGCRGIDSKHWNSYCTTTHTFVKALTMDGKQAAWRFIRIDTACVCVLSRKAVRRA
# [2] = biological target: rat nerve growth factor (beta-NGF) (rat, UniProt P25427 122-241)
# Sequence of rat nerve growth factor (beta-NGF) (P25427 122-241): as the sequence (P01138 122-241) above, with S3T, I6V, R9M, M37T, D60A, D65E, M92T, G94D, V117A, A120G counted along it
# [3] = biological target: mouse nerve growth factor (mouse, UniProt P01139 122-241)
# Sequence of mouse nerve growth factor (P01139 122-241): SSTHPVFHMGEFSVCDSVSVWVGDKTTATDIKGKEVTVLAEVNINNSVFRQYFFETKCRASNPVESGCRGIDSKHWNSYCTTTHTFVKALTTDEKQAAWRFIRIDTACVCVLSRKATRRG
Binder,"IC50, FLIPR calcium mobilisation [1]","IC50, PC12 cell survival [1]","IC50, FLIPR calcium mobilisation [2]","IC50, PC12 cell survival [2]","IC50, FLIPR calcium mobilisation [3]","IC50, TF-1 cell proliferation [1]","IC50, TF-1 cell proliferation [2]","IC50, TF-1 cell proliferation [3]"
B1,0.44 nM,0.7 nM,0.43 nM,35 nM,0.48 nM,–,–,–
B2,0.31 nM,0.71 nM,0.29 nM,37 nM,0.37 nM,–,–,–
B3,0.45 nM,0.53 nM,0.3 nM,0.42 nM,0.28 nM,0.1 nM,0.12 nM,0.1 nM
B4,0.33 nM,0.4 nM,0.13 nM,–,0.12 nM,–,–,–
B5,0.29 nM,0.35 nM,0.14 nM,–,0.13 nM,–,–,–
B6,0.34 nM,0.48 nM,0.12 nM,–,0.11 nM,–,–,–
B7,0.37 nM,1.1 nM,0.15 nM,–,0.16 nM,–,–,–
B8,0.35 nM,0.59 nM,0.18 nM,–,0.18 nM,–,–,–
B9,0.26 nM,0.52 nM,0.16 nM,0.43 nM,0.14 nM,–,–,–
B10,0.33 nM,0.47 nM,0.13 nM,–,0.15 nM,–,–,–
B11,0.32 nM,0.86 nM,0.33 nM,2.63 nM,0.27 nM,–,–,–
B12,0.37 nM,0.58 nM,0.16 nM,–,0.15 nM,–,–,–
B13,0.26 nM,0.41 nM,0.15 nM,0.41 nM,0.16 nM,–,–,–
B14,0.22 nM,0.4 nM,0.21 nM,0.38 nM,0.14 nM,0.26 nM,0.08 nM,0.07 nM

# — patent publication US20080107658A1 (AstraZeneca / MedImmune, published 2008)
